Patent US10487307B2, “Culture method for pluripotent stem cells” (FUJIFILM CORPORATION, priority 2013, dated 2019)

B1: RCP-11: recombinant polypeptide for culture, SEQ ID NO: 25; vitronectin positions 1-55, 269-277, 295-341, 342-373, C274S (protein)
chain: MDQESCKGRCTEGFNVDKKCQCDELCSYYQSCCTDYTAECKPQVTRGDVFTMPEDESQEESEGSEDIFELLFWGRTSAGTRQPQFISRDWHGVPGQVDAAMAGRIYISGMAPRPSLAKKQRFRHRNRKGYRSQRGHSRGRNQN
modifications: Vitronectin-derived Recombinant Protein (RCP-11)
notes: vitronectin positions 1-55, 269-277, 295-341, 342-373, C274S
B2: RCP-1: recombinant polypeptide for culture, SEQ ID NO: 15; human vitronectin positions 1-55 and 269-459 with N-terminal methionine (protein)
chain: MDQESCKGRCTEGFNVDKKCQCDELCSYYQSCCTDYTAECKPQVTRGDVFTMPEDEPSQEECEGSSLSAVFEHFAMMQRDSWEDIFELLFWGRTSAGTRQPQFISRDWHGVPGQVDAAMAGRIYISGMAPRPSLAKKQRFRHRNRKGYRSQRGHSRGRNQNSRRPSRATWLSLFSSEESNLGANNYDDYRMDWLVPATCEPIQSVFFFSGDKYYRVNLRTRRVDTVDPPYPRSIAQYWLGCPAPGHL
modifications: Vitronectin-derived Recombinant Protein (RCP-1)

What was measured:
[1] = test system: iPS cells; assay: Cell growth property evaluation 2 (2-mercaptoethanol concentration in Essential 8); assay type: cell-based, human; details: RCP-11 100 μg/ml, 72 hours
Description: A cell culture surface coated with RCP-11 was prepared in the same manner as in <Cell growth property evaluation 1> of Example 1. iPS cells collected in the same manner as in <Cell growth property evaluation 1> were suspended in the respective media composed as shown in Table 12 and seeded into wells at a cell density of 10,000 cells/well. After the cells were cultured for 72 hours, the number of cells were quantified in the same manner as in <Cell growth property evaluation 1>, and the cell growth properties were evaluated based on a cell growth rate which is a ratio calculated by regarding the number of cells cultured using RPC-11 as being 100%.

[2] = Example 5: residual rate of RCP-11 adsorbed after 2-mercaptoethanol pretreatment; assay type: physicochemical; details: 24 hours
Description: In the same manner as in Evaluation 1 about amount of residual polypeptide adsorbed> of Example 3, RCP-11 was added to the respective wells, thereby obtaining a coated cell culture surface. Thereafter, a 2-mercaptoethanol/PBS solution of which the concentration was adjusted in advance as shown in Table 14 was added thereto, followed by incubation for 24 hours, thereby accelerating the desorption of RCP-11.
After the cells were cultured for 72 hours, the number of cells was quantified in the same manner as in <Cell growth property evaluation 1> of Example 3. In the table, each of the residual rate of RCP-11 adsorbed and the cell growth rate is expressed as a ratio calculated by regarding the residual rate of the polypeptide adsorbed and the cell growth rate in the case where the pretreatment with PBS is performed as being 100%.

[3] = test system: iPS cells; assay: Growth evaluation, growth curves over 8 days; assay type: cell-based, human
Description: The iPS cells collected in the same manner as in <Cell adhesiveness evaluation 1> were seeded into a 96-well plate, onto which RCP-1, RCP-21, and natural human vitronectin were adsorbed, at a ratio of 250 cells/well and cultured for 8 days in a 5% CO2 incubator at 37° C. The number of adhesive cells after different days of culture was measured in the same manner as in <Cell adhesiveness evaluation 1>, thereby obtaining growth curves. […] In FIG. 2, a black rhombus indicates a case using RCP-1, and a black square indicates a case using RCP-21.
From the increase and decrease in the obtained number of cells, the doubling time was calculated. As a result, it was confirmed that it takes 46.4±2.1 hours for the number of cells to be doubled in a case where RCP-1 is used, and 67.7±2.1 hours in a case where RCP-21 is used.

Molecule | Cell growth rate ([1]; Essential8, 2-mercaptoethanol 0, 10,000 cells/well, this = 100%) | Cell growth rate ([1]; Essential8, 2-mercaptoethanol 10 μM (0.0000078% by mass)) | Cell growth rate ([1]; Essential8, 2-mercaptoethanol 10 μM (0.000078% by mass)) | Cell growth rate ([1]; Essential8, 2-mercaptoethanol 100 μM (0.00078% by mass)) | Cell growth rate ([1]; Essential8, 2-mercaptoethanol 1 mM (0.0078% by mass)) | Cell growth rate ([1]; Essential8, 2-mercaptoethanol 10 mM (0.078% by mass)) | Residual rate of RCP-11 adsorbed (%) ([2]; pretreatment 2-Mercaptoethanol 8.96 μM (0.00007% by mass), PBS pretreatment = 100%) | Residual rate of RCP-11 adsorbed (%) ([2]; pretreatment 2-Mercaptoethanol 895.94 μM (0.007% by mass), PBS pretreatment = 100%) | Residual rate of RCP-11 adsorbed (%) ([2]; pretreatment 2-Mercaptoethanol 89.6 mM (0.7% by mass), PBS pretreatment = 100%) | Residual rate of RCP-11 adsorbed (%) ([2]; pretreatment PBS, this = 100%) | doubling time ([3]; 250 cells/well, cultured for 8 days) | cell growth properties ([3]; FIG. 2)
B1 | 100% | 104.1% | 97.3% | 49.2% | 38.7% | 40.2% | 82.2% | 77.4% | 56.6% | 100% | – | –
B2 | – | – | – | – | – | – | – | – | – | – | 46.4 ± 2.1 h | higher cell growth properties compared to RCP-21
